The labels stand for the following.
T1: human OX40 protein (Sino Biological, Cat. 10481-H08H) (human, UniProt P43489 29-216)
T1 construct: Bought recombinant protein; also called CD134; TNFRSF4
T1 sequence (looked up): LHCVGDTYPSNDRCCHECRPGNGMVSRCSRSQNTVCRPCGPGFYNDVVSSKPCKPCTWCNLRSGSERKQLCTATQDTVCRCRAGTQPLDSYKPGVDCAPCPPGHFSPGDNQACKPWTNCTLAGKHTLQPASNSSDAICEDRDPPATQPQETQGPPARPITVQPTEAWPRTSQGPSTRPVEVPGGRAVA

T2: mouse OX40 (ACRO, Cat. OX0-M5259) (mouse, UniProt P47741 20-211)
T2 construct: Bought protein; construct not described; also called mouse OX40 antigen
T2 sequence (looked up): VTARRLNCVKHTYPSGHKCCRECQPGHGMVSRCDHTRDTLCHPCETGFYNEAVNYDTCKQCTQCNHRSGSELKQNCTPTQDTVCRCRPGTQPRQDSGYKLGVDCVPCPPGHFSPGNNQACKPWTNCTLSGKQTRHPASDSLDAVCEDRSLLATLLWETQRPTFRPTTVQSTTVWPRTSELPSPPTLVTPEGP

T3: human OX40 expressed on cells (human, UniProt P43489 29-277)
T3 construct: whole, on cells
T3 sequence (looked up): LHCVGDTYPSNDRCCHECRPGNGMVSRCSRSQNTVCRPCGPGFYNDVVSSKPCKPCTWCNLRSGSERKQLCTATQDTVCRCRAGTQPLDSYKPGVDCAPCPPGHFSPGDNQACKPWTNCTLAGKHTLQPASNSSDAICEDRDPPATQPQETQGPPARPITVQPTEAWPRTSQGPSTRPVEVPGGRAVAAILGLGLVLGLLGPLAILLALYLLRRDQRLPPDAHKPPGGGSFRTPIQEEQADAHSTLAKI

B1: O31C (antibody, human IgG1, lambda, V domains shown)
VH: EVQLLESGGGLVQPGGSLRLSCAASGFTFSDYDMSWVRQAPGKGLEWVSSISPSSGSIYYADSVKGRFTISRDNSKNTLYLQMNSLRAEDTAVYYCAKDSIWCTNSRCYYDNAMDVWGQGTLVTVSS
VL: QSVLTQPPSASGTPGQRVTISCSGSSSNIGNNAVSWYQQLPGTAPKLLIYSDSNRPSGVPDRFSGSKSGTSASLAISGLRSEDEADYYCGSWDYSLSAYVFGGGTKLTVLG
B2: O410 (antibody, human IgG1, lambda, V domains shown)
VH: EVQLLESGGGLVQPGGSLRLSCAASGFTFSDYYMSWVRQAPGKGLEWVSGIYSDGSRKYYADSVKGRFTISRDNSKNTLYLQMNSLRAEDTAVYYCARHWSRFDYWGQGTLVTVSS
VL: B1 VL with N31S, A33Y, S35T, G42R, S51Y, S91A, Y94D, A98G
B3: O212 (antibody, V domains shown)
VH: EVQLLESGGGLVQPGGSLRLSCAASGFTFSDYAMSWVRQAPGKGLEWVSWIYYDSGSKYYADSVKGRFTISRDNSKNTLYLQMNSLRAEDTAVYYCAKGPGPNGQLAFDYWGQGTLVTVSS
VL: B1 VL with S23T, N31S, A33S, S51A, D52N, N54H, S91A, A98G
notes: also called O212 antibody
B4: O34 (antibody, V domains shown)
VH: B2 VH with Y52S, D54S, S56G, R57N, S101K
VL: B1 VL with S23T, S25P, A33D, S51A, D52N, P60S, S91T, A98G, F101L
B5: O35 (antibody, V domains shown)
VH: B2 VH with Y33S, G50A, Y52S, S56G, R57S, K58T, H99R, S101Q, R102T
VL: B1 VL with S23T, N31S, S51H, N54H, R55P, S91A, Y94S, A98G
B6: O32 (antibody, V domains shown)
VH: B2 VH with D31S, Y33S, G50V, Y52S, D54G, S56G, R57S, K58T, S101R, R102Y
VL: B1 VL with A33Y, S51A, N54K, S91A, Y94S, A98G
B7: O15 (antibody, V domains shown)
VH: B2 VH with D31S, Y33S, G50M, Y52S, D54G, S56G, R57S, K58T, S101R, R102Y
VL: B1 VL with A33Y, S51A, N54K, S91A, Y94S, A98G
B8: OX40L-Fc protein (ACROBiosystems, Cat #. OX0-H5255) (Fc fusion, UniProt P23510 51-183, looked up)
chain: QVSHRYPRIQSIKVQFTEYKKEKGFILTSQKEDEIMKVQNNSVIINCDGFYLISLKGYFSQEVNISLHYQKDEEPLFQLKKVRSVNSLMVASLTYKDKVYLNVTTDNTSLDDFHVNGGELILIHQNPGEFCVL
notes: Bought; not shown: Fc part of the bought fusion protein

Numbering of substitutions follows the chain as printed. In names and notes the source's numbering stands.

One test deals with T1, human OX40 protein (Sino Biological, …). The experiment in a line: ELISA, human OX40 protein coated at 0.1 ug/ml, serially diluted antibody, HRP secondary antibody, O.D. 450 nm. As to the method: (§1) ELISA was performed to quantitatively analyze the antigen-binding activity of the OX40-binding antibody prepared in Example 1.3 to the antigen.
(§2) More specifically, the antigen human OX40 protein (Sino Biological, Cat. 10481-H08H) was added to a 96-well plate (Thermo Scientific, Cat. 469949) at a concentration of 0.1 μg/ml, and coated overnight at 4° C. Here, 200 μl of 3% BSA (Millipore, Cat. 820451) was placed in each well and blocked at room temperature for 2 hours. The OX40-binding antibody (Example 1.3) serially diluted 4-fold from 100 nM was added thereto and reacted at room temperature for 2 hours. After washing 4 times with 300 μl of PBS/Tween-20, HRP-bound secondary antibody (Abcam, Cat. Ab98624) was treated and reacted at room temperature for 1 hour. Then, it was washed 4 times with 300 μl of PBS/Tween-20. Following 100 μl of TMB was added thereto to develop color, 100 μl of 2 N H₂SO₄ was added to stop the reaction. The absorbance was measured at 450 nm using a microplate reader (Perkin Elmer, Victor X5).
In the case of B1, the 50% effective concentration (EC50 (read off the curve)) was ~0.03 nM.

In the next test the target is T2, mouse OX40 (ACRO, Cat. OX0-M5259). The experiment in a line: ELISA, mouse OX40 coated at 0.5 ug/ml, serially diluted antibody, goat anti-human Fab secondary antibody, O.D. 450 nm. As to the method:
(§3) To determine the cross-species reactivity of anti-OX40 antibodies to mouse and cynomolgus (Cyno) monkey OX40, mouse OX40 (ACRO, Cat. OX0-M5259) and cynomolgus monkey OX40 (R&D, Cat. 10311-OX) antigens were coated on a 96-well plate at a concentration of 0.5 μg/ml, and the plate was incubated overnight at 4° C. After blocking using 3% BSA, serially diluted OX40 antibodies were treated and incubated for 1 hour at room temperature. Goat anti-human Fab (Jackson ImmunoResearch, Cat. 109-036-097) was diluted 1: 5000 and used as a secondary antibody for detection. Absorbance at 450 nm was read using a microplate reader (Molecular Device). To determine EC50 values for dose-dependent binding of OX40 binding antibodies in mice and cynomolgus monkeys, dose-response data were analyzed using a 4-parameter logistic model with GraphPad Prism.
Consider B2, for which the binding result is “no binding (tested: about 25000 pM)”.

A further test deals with T1, human OX40 protein (Sino Biological, …). The experiment in a line: SPR (BIACORE T200), antibody captured on protein A chip, human OX40 as analyte, 1:1 model. As to the method: (§4) Quantitative analysis of antigen binding of the OX40-binding antibody prepared in Example 1.3 was performed using a BIACORE T200. The experimental conditions using surface plasmon resonance (SPR) were as follows: Protein A-immobilized CM5 chip (GE Healthcare) was used. 10 mM Glycine-HCl (pH 1.5) was used as the regeneration buffer, and HBS-EP (pH 7.4) was used as the running buffer, antibody dilution, and antigen dilution buffer. OX40-binding antibody was diluted with HBS-EP (pH 7.4), and human OX40 protein (Sino Biological, Cat. 10481-H08H) was serially diluted two-fold from 200 nM. Analysis was performed at all 11 concentrations (200, 100, 50, 25, 12.5, 6.25, 3.13, 1.56, 0.78, 0.39, 0 nM) including 0 nM. First, the OX40-binding antibody was captured on a chip immobilized with protein A (Thermo, Cat. 21184). In the association phase of human OX40 protein, the association time was set to 400-600 seconds and the flow rate was set to 30 μL/min. In the dissociation phase, the dissociation time was set to 400-2000 seconds and the flow rate was set to 30 μL/min. In the regeneration phase, the flow rate was set to 100 μL/min, and the flow time was set to 30 seconds. By using BIACORE Evaluation software, the data were analyzed and fitted in a 1:1 binding model.
With B2, the Kd turned out to be 1.24 nM and the koff was 4.17e-05 s⁻¹.
For the molecule B3, the Kd stood at 24.4 nM, the koff worked out at 0.00167 s⁻¹ and the association rate constant (kon) was determined as 68300 M⁻¹ s⁻¹.
B4 came in with a Kd of 2.4 nM and a koff of 5.63e-05 s⁻¹.
Take B1: the Kd was 122 nM and the koff was 0.00238 s⁻¹.
B5 had a Kd of 19.9 nM and a koff of 0.000203 s⁻¹.
Turning to B6, the Kd was found to be 2.05 nM and the koff was 4.13e-05 s⁻¹.

A further test addresses T3, human OX40 expressed on cells. The experiment in a line: flow cytometry on activated human CD4+ T cells, fitted MFI curve. As to the method: (§5) The activity of the OX40-binding antibody prepared in Example 1.3 to bind to activated human T cells was tested as follows.
(§6) To induce OX40 expression, cells were activated for several days prior to the binding assay. Briefly, human CD4⁺ T cells ([…] Technologies) were cultured in the presence of IL-2 (Roche Life Sciences, Indianapolis, IN) and phytohemaglutinin-leucoagglutinin (PHA-L; Roche Life Sciences, Indianapolis, IN) at a concentration of 10 μg/ml for 2 days to activate the human CD4⁺ T cells. The activated CD4⁺ T cells were incubated with OX40-binding antibody serially diluted 5-fold from 1 μM. The bound antibody was detected with a fluorescently labeled anti-human IgG polyclonal secondary antibody, and cells were stained with FITC mouse anti-human CD134 (OX40) antibody clone ACT35 (BD Pharmingen) to detect CD4⁺ T cells expressing OX40. Fluorescence intensity of staining was measured using a BD FACSCantoII flow cytometry analyzer. Mean fluorescence intensity (MFI) of OX40-binding antibody staining was calculated using FlowJo software.
Molecule B7 showed a Bottom of 7.36 and a Top of 102.
Take B2: the Bottom came out at 1.04 and the Top is 95.9.
Consider B3, for which the Bottom came out at 5.53 and the Top stood at 99.4.
For B4 the same measures were 5.77 and 99.9.
With B5, the Bottom is -0.361 and the Top is 97.3.
The corresponding values for B6 are 7.69 and 102.

The target in another test is T1, human OX40 protein (Sino Biological, …). The test is described as follows: ELISA, human OX40 protein coated at 0.1 ug/ml, antibody diluted 4-fold from 100 nM, HRP secondary antibody, O.D. 450 nm. As to the method: as §1, §2
Turning to B7, the “EC50 (read off the curve)” value was ~0.2 nM.
On to B2, for which the “EC50 (read off the curve)” value is ~0.03 nM.
B4: the “EC50 (read off the curve)” value is ~0.005 nM.
On to B5, for which the “EC50 (read off the curve)” value is ~0.006 nM.
Regarding B6, the “EC50 (read off the curve)” value is ~0.001 nM.

The target of a further test is T3, human OX40 expressed on cells. The experiment in a line: flow cytometry on activated human CD4+ T cells. As to the method: as §5, §6
In turn, B7 registered an EC50 of 2.65 nM.
B2 yielded a half-maximal effective concentration (EC50) of 0.253 nM.
Molecule B3 returned an EC50 of 2.17 nM.
Regarding B4, it took 0.182 nM to reach a half-maximal effect (EC50).
As to B5, the midpoint of the response, the EC50, lay at 1.22 nM.
Still for that read-out and setting: then B6, with 0.102 nM.

A further test deals with T1, human OX40 protein (Sino Biological, …). The test is described as follows: SPR (BIACORE T200), same test as for the antibodies (capture on protein A chip, human OX40 as analyte), 1:1 model. How it is done: as §4
Take B8: the koff worked out at 0.00119 s⁻¹.

A further test addresses T4, cynomolgus monkey OX40 (R&D, Cat. 10311-OX) (cynomolgus monkey).
T4 construct: Bought protein; construct not described; also called Cynomolgus monkey OX40 antigen; Cyno OX40
The test is described as follows: ELISA, cynomolgus monkey OX40 coated at 0.5 ug/ml, serially diluted antibody, goat anti-human Fab secondary antibody, O.D. 450 nm. How it is done: as §3
On to B2, for which the “EC50 (read off the curve)” value is ~0.02 nM.
Take B3: the “EC50 (read off the curve)” value was ~0.02 nM.
Take B4: the “EC50 (read off the curve)” value was ~0.02 nM.
B1: the “EC50 (read off the curve)” value is ~0.08 nM.
In the case of B6, the “EC50 (read off the curve)” value was ~0.2 nM.

These data come from patent publication US20240182593A1 (YUHAN, published 2024).
